Ends that are not written are not given here.
B1: GST fusion protein of site 2 peptide of integrin β3 (S2-β3 peptide) (peptide)
chain: QPNDGQSHVGSDNHYSASTTM
modifications: also: GST fusion protein
notes: The 6His tag was put into the BamHI site of pGEX-2T and the peptide's oligonucleotides into the BamHI/EcoRI site of the resulting vector; also called S2 peptide

Columns and labels:
[1] = biological target: Integrin αvβ3 (Homo sapiens) (UniProt P06756); conditions: cited from earlier work
[2] = biological target: T1, chemokine domain of fractalkine (FKN-CD), wild type (UniProt P78423 25-100); experiment: ELISA; FKN-CD, γC399tr, FN-H120 or FN8-11 coated on wells (5 µM in Figure 4d; GST removed from FN-H120 and FN8-11); GST-tagged S2 peptides added in PBS, 2 h at room temperature; detected with HRP-conjugated anti-GST antibody; conditions: both partners purified
T1 construct: fractalkine (CX3CL1), N-terminal chemokine domain, printed as residues 1-76; The limits 1-76 are printed for the chemokine domain in general (introduction); also called WT FKN-CD; CX3CL1
T1 sequence (looked up): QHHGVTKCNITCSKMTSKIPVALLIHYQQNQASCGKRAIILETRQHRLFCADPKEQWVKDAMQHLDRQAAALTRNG

Chain of Integrin αvβ3 (Homo sapiens) (P06756 31-992, chain 1 of 2): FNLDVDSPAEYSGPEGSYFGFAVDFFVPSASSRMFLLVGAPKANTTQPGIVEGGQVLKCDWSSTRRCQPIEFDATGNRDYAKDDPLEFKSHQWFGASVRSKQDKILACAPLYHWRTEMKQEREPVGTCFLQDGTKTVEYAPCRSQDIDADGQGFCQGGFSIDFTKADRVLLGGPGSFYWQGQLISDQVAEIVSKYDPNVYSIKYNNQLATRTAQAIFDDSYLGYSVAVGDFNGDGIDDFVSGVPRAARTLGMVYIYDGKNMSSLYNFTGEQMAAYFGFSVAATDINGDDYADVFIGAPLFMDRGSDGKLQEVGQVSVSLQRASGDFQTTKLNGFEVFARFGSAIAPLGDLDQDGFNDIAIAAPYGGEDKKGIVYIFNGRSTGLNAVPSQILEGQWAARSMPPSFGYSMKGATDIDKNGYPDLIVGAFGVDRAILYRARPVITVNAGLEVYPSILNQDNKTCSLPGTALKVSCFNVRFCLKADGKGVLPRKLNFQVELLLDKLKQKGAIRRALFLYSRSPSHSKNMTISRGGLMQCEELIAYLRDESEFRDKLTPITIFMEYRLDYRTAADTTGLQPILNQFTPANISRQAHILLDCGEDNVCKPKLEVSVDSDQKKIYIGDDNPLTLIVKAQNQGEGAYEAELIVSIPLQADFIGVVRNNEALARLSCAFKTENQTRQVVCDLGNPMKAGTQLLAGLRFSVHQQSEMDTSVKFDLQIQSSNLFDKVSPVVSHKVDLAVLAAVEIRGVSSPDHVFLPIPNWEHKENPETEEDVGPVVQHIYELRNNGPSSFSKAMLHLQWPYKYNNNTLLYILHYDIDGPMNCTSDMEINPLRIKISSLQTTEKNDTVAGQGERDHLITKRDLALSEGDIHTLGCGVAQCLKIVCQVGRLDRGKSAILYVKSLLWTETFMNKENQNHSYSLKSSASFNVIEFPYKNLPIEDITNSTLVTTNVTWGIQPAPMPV
Chain of Integrin αvβ3 (Homo sapiens) (P05106 27-718, chain 2 of 2, further chain): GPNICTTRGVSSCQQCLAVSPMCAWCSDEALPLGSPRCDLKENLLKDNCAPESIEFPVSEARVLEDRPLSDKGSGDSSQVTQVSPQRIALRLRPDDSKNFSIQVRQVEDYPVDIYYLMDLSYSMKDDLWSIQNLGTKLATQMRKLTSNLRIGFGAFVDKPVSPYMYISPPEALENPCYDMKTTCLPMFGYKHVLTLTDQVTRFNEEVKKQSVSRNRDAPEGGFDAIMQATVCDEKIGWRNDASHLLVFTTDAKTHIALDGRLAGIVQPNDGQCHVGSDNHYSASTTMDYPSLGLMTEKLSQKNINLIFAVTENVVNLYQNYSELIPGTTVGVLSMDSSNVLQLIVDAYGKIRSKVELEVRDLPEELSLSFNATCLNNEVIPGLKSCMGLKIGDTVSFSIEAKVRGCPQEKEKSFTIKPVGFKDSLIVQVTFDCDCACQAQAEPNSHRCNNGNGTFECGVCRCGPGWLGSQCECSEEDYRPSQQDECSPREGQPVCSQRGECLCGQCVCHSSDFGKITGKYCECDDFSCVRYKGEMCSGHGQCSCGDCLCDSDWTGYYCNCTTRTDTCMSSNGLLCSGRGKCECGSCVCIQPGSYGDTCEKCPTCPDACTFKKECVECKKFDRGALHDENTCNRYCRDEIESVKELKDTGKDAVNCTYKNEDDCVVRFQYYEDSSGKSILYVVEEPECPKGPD

Molecule	Kd [1] [nM]	binding result [2]
Fractalkine chemokine domain (from UniProt P78423)	0.3	
B1		binds

Source: paper PMC4008574 (PLoS ONE, 2014)
